Results from patent US20100267005A1.

Target: H6GY-titin I28 protein
Assay: sedimentation equilibrium, 3 loading concentrations, ten fold molar excess of Ni2+; Ni(II)-mediated self-association (monomer-dimer)

Kd: 200 µM
Substance: H6GY-titin I28 protein
